Experimental data reported in PMC11585616, “Allosteric substrate release by a sialic acid TRAP transporter substrate binding protein” (Communications Biology, 2024).
Several values for one entry are separate records, joined by “and”; a condition that tells them apart may be missing. Equal values may be shown once.

Tests used:
Settings in all cases: both partners purified
VcSiaP [1] = target: T1, VcSiaP (Vibrio cholerae O1 El Tor N16961 …, UniProt Q9KR64); assay: ITC; VHH titrated to the SBP, 25 °C, 50 mM Tris, 50 mM NaCl, pH 8.0; one set of sites model
T1 construct: all residues 1-299 seen in the crystal structures; also called SiaP from V. cholerae; VcSiaPwt; not shown: His6, N-terminal, cleaved

VcSiaP [2] = target: T1, VcSiaP; assay: SEC-MALS; Superose6 increase 10/300, room temperature, 50 mM Tris, 50 mM NaCl, pH 8.0; 120 uM of each protein
VcSiaP [3] = target: T1, VcSiaP; assay: ITC; SiaP first loaded with Neu5Ac, then titrated with the VHH (sequential titration), 25 °C, 50 mM Tris, 50 mM NaCl, pH 8.0; competitive binding model for the wild type

T1 sequence (Q9KR64 23-321, one chain of several): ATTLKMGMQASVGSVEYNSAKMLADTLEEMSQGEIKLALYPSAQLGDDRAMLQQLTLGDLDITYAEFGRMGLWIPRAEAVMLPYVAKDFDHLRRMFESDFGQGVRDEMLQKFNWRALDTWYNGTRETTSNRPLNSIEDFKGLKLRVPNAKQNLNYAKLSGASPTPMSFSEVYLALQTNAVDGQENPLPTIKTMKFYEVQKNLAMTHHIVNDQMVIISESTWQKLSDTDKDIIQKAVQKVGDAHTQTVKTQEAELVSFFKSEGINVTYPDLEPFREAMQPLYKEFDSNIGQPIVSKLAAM

Binder	Kd (VcSiaP [1])	stoichiometry N (VcSiaP [2])	stoichiometry N (VcSiaP [3])
VHHVcP #2 (VHH, alpaca VHH raised against VcSiaP; A second construct (pET28a, N-terminal pelB-His6-TEV, tag cleaved) was made to improve crystallization; also called Vc#2; source: E. coli WK6, periplasmic extract, purified (Ni2+-NTA, SEC); not shown: HA, C-terminal, kept; His6, C-terminal, kept) VHH: QVQLVESGGRLVQTGGSLRLSCAASGDTFSNYVMGWFRQAPGKEREFVAAISWTGANSYYADSVAGRFTISRDNAKNTVALQMNSLKPEDTAIYYCAADHFHVTHRKYDYWGQGTQVTVSS	13 nM and 16 nM	1	~1
VHHVcP #1 (VHH, alpaca VHH raised against VcSiaP; A second construct (pET28a, N-terminal pelB-His6-TEV, tag cleaved) was made to improve crystallization; also called Vc#1; source: E. coli WK6, periplasmic extract, purified (Ni2+-NTA, SEC); not shown: HA, C-terminal, kept; His6, C-terminal, kept) VHH: QVQLVESGGGLVQAGGSLRLSCAASGRTFSSSTMGWFRQAPGKEREFVAGISWSDGSTYYADSVKGRFTISRDNAKNTVYLQMNSLKPEDSAVYYCAAERWLATPQAMAVTPNALDAWGQGTQVTVSS	162 nM	1	–
